1 molecule from EP2832747A1 (Université Catholique de Louvain, dated 2015) can be followed below.

This experiment concerns the target T1, shGARP-TGFβ (human).
T1 construct: also called immobilized shGARP-TGFβ
The experiment in a line: BIACOR analysis (SPR), immobilized shGARP-TGFβ.

T1 sequence (Q14392 20-627): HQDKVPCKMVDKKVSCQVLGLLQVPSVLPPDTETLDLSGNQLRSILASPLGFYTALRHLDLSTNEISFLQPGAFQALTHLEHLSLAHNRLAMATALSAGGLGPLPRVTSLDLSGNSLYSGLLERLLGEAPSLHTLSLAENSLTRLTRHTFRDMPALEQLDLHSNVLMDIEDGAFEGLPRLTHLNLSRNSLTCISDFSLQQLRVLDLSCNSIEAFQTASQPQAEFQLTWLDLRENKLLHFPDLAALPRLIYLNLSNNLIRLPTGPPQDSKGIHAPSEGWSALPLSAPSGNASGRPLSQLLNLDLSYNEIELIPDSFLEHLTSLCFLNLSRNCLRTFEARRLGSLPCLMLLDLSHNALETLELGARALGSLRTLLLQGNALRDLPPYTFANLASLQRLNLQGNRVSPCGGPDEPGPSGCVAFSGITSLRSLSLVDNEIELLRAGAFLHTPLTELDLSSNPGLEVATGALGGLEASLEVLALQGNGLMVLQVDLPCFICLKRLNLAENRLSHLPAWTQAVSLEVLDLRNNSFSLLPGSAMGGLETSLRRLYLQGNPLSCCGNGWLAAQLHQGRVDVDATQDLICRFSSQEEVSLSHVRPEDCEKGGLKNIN

B1: MHGARP8 (antibody, V domains shown)
VH: QVQLKESGPGLVAPSQSLSITCTVSGFSLTGYGINWVRQPPGKGLEWLGMIWSDGSTDYNSVLTSRLRISKDNSNSQVFLKMNSLQVDDTARYYCARDRNYYDYDGAMDYWGQGTSVTVSS
VL: DIQVTQSSSYLSVSLGDRVTITCKASDHIKNWLAWYQQKPGIAPRLLVSGATSLEAGVPSRFSGSGSGKNFTLSITSLQTEDVATYYCQQYWSTPWTFGGGTTLEIR
notes: Mouse monoclonal from hybridoma MHGARP8 (LMBP 10246CB); used biotinylated in flow cytometry; also called MGARPB; antibody of hybridoma LMBP 10246CB
B1 came in with a dissociation constant (Kd) of 0.2 nM.

By Kd is commonly meant the constant that tells how readily two partners part at equilibrium.
